T1: human FcγRIIa(R) (human, UniProt P12318 36-217)
T1 construct: also called FcgRIIaR; hFcgRIIa(R)
T1 chain: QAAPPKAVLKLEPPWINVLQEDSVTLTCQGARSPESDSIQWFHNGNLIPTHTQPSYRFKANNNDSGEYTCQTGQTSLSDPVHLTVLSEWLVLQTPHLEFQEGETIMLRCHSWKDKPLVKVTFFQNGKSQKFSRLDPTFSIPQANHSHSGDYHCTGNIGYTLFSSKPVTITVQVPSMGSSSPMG

T2: human FcγRIIb (human, UniProt P31994 43-217, limits assumed)
T2 construct: also called FcgRIIb; hFcgRIIb
T2 sequence: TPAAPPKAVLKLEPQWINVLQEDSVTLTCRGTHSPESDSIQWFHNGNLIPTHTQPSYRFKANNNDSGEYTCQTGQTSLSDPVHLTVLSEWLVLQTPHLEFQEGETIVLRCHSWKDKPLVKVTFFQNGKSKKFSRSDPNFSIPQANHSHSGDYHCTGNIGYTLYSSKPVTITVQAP

T3: human FcγRIIa(H) (human, UniProt P12318 36-217)
T3 construct: also called FcgRIIaH; hFcgRIIa(H)
T3 sequence: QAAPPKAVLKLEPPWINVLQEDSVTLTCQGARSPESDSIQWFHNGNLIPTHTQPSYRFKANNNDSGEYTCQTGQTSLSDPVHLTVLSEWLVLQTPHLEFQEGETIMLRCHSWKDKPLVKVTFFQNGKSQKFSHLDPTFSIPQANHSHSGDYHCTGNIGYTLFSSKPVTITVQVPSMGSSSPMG

T4: FcγRIIa type H (human, UniProt P12318 36-217)
T4 construct: also called FcγRIIaH; FcγRIIH
T4 sequence: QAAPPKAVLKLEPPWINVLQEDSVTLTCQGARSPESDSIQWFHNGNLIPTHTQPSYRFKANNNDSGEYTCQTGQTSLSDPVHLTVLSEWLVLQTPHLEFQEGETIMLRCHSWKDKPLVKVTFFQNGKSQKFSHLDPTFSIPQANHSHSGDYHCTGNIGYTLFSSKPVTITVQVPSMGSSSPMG

T5: FcγRIIb (human, UniProt P31994 43-217, limits assumed)
T5 construct: also called FcgRIIb; FcγIIB
T5 sequence: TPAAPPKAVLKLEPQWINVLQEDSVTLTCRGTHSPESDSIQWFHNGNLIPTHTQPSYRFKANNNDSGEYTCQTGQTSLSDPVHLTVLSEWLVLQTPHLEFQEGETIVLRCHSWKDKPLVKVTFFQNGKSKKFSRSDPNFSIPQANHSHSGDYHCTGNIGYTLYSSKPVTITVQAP


Columns and labels:
human FcγRIa = target: T6, human FcγRIa (human, UniProt P12314 16-292, limits assumed); assay: SPR, captured antibody;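 further: antibody captured on a sensor chip, Fcγ receptor flowed over at 25 °C, receptor binding normalized to the captured antibody amount and expressed relative to the reference antibody ×100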
T6 construct: also called FcgRIa; hFcgRIa
T6 sequence (P12314 16-292 limits assumed): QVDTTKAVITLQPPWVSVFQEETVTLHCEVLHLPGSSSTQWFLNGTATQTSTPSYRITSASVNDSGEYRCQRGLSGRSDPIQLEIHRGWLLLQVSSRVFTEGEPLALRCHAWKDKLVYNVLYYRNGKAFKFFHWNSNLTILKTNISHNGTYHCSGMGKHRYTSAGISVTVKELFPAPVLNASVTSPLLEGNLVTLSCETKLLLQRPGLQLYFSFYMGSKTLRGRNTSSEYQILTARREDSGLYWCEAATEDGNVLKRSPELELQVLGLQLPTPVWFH
Method: (§1) Interaction between each modified antibody and Fcγ receptor prepared in the manner described above was analyzed using the BIACORE™ T100 surface plasmon resonance system (GE Healthcare), BIACORE™ T200 surface plasmon resonance system (GE Healthcare), BIACORE™ A100 surface plasmon resonance system or BIACORE™ 4000 surface plasmon resonance system. HBS-EP+ (GE Healthcare) was used for the running buffer, and measurements were carried out at 25° C. The chips used were chips in which antigen peptides, Protein A (Thermo Scientific), Protein A/G (Thermo Scientific) or Protein L (ACTIGEN® protein (Alltech or BioVision) were immobilized on the Series S Sensor Chip CMS (GE Healthcare) or Series S Sensor Chip CM4 (GE Healthcare) by amine coupling, or chips in which preliminarily biotinylated antigen peptides were allowed to interact and then immobilized on the Series S Sensor Chip SA (certified) (GE Healthcare). The target antibodies were captured on these sensor chips, Fcγ receptor diluted with the running buffer was allowed to interact, followed by measurement of the amount of bound antibody. The amounts bound were compared between antibodies. However, since the amount of Fcγ receptor bound depends on the amount of captured antibody, the values used for comparison were first corrected by dividing the amount of Fcγ receptor bound by the captured amount of each antibody. Through reaction with 10 mM glycine-HCl at pH 1.5, the sensor chips were regenerated by washing off antibody captured on the sensor chips and used repeatedly.
(§2) Binding strength was evaluated according to the following method based on the results of analyzing the interaction with each FcγR. […] That value was then further multiplied by 100, and the resulting value was used as an indicator of relative binding activity to each FcγR.

human FcγRIIa(R) = target: T1, human FcγRIIa(R); assay: SPR, captured antibody;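 further: antibody captured on a sensor chip, Fcγ receptor flowed over at 25 °C, receptor binding normalized to the captured antibody amount and expressed relative to the reference antibody ×100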
Method: as §1, §2

human FcγRIIb = target: T2, human FcγRIIb; assay: SPR, captured antibody;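 further: antibody captured on a sensor chip, Fcγ receptor flowed over at 25 °C, receptor binding normalized to the captured antibody amount and expressed relative to the reference antibody ×100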
Method: as §1, §2

human FcγRIIa(H) = target: T3, human FcγRIIa(H); assay: SPR, captured antibody;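 further: antibody captured on a sensor chip, Fcγ receptor flowed over at 25 °C, receptor binding normalized to the captured antibody amount and expressed relative to the reference antibody ×100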
Method: as §1, §2

FcγRIa = target: T7, FcγRIa (human, UniProt P12314 16-292, limits assumed); assay: SPR (Biacore), bound amount, IL6R-BF648/IL6R-L = 100
T7 construct: also called FcgRIa; CD64
T7 sequence (P12314 16-292 limits assumed): as above
Method: (§3) According to the following method, relative binding activities were calculated for the results of analyzing interactions with the respective FcγRs.

FcγRIIa type H = target: T4, FcγRIIa type H; assay: as above
Method: as §3

FcγRIIb = target: T5, FcγRIIb; assay: as above
Method: as §3

Row | Binder | relative binding activity (human FcγRIa) | relative binding activity (human FcγRIIa(R)) | relative binding activity (human FcγRIIb) | relative binding activity (human FcγRIIa(H)) | relative binding activity (FcγRIa) | relative binding activity (FcγRIIa type H) | relative binding activity (FcγRIIb)
1 | GpH7-B3 Y296G/GpL16-k0 (antibody, human IgG1, B3 variant; copies: 2 + 2) heavy: not shown light: DIVMTQSPLSLPVTPGEPASISCQASESLVHSNRNTYLHWYLQKPGQSPQLLIYKVSNRFSGVPDRFSGSGSGTDFTLKISRVEAEDVGVYYCSQNTHVPPTFGQGTKVEIE | 100 % of GpH7-B3/GpL16-k0 | 77 % of GpH7-B3/GpL16-k0 | 58 % of GpH7-B3/GpL16-k0 | 83 % of GpH7-B3/GpL16-k0 |  |  | 
2 | GpH7-B3 Y300P/GpL16-k0 (antibody, human IgG1, B3 variant; copies: 2 + 2) heavy: not shown light: DIVMTQSPLSLPVTPGEPASISCQASESLVHSNRNTYLHWYLQKPGQSPQLLIYKVSNRFSGVPDRFSGSGSGTDFTLKISRVEAEDVGVYYCSQNTHVPPTFGQGTKVEIE | 9 % of GpH7-B3/GpL16-k0 | -1 % of GpH7-B3/GpL16-k0 | -1 % of GpH7-B3/GpL16-k0 | 0 % of GpH7-B3/GpL16-k0 |  |  | 
3 | GpH7-B3 Y300R/GpL16-k0 (antibody, human IgG1, B3 variant; copies: 2 + 2) heavy: not shown light: DIVMTQSPLSLPVTPGEPASISCQASESLVHSNRNTYLHWYLQKPGQSPQLLIYKVSNRFSGVPDRFSGSGSGTDFTLKISRVEAEDVGVYYCSQNTHVPPTFGQGTKVEIE | 91 % of GpH7-B3/GpL16-k0 | 38 % of GpH7-B3/GpL16-k0 | 25 % of GpH7-B3/GpL16-k0 | 34 % of GpH7-B3/GpL16-k0 |  |  | 
4 | GpH7-B3 Y296K/GpL16-k0 (antibody, human IgG1, B3 variant; copies: 2 + 2) heavy: not shown light: DIVMTQSPLSLPVTPGEPASISCQASESLVHSNRNTYLHWYLQKPGQSPQLLIYKVSNRFSGVPDRFSGSGSGTDFTLKISRVEAEDVGVYYCSQNTHVPPTFGQGTKVEIE | 99 % of GpH7-B3/GpL16-k0 | 70 % of GpH7-B3/GpL16-k0 | 45 % of GpH7-B3/GpL16-k0 | 66 % of GpH7-B3/GpL16-k0 |  |  | 
5 | GpH7-B3 Y296R/GpL16-k0 (antibody, human IgG1, B3 variant; copies: 2 + 2) heavy: not shown light: DIVMTQSPLSLPVTPGEPASISCQASESLVHSNRNTYLHWYLQKPGQSPQLLIYKVSNRFSGVPDRFSGSGSGTDFTLKISRVEAEDVGVYYCSQNTHVPPTFGQGTKVEIE | 100 % of GpH7-B3/GpL16-k0 | 77 % of GpH7-B3/GpL16-k0 | 52 % of GpH7-B3/GpL16-k0 | 74 % of GpH7-B3/GpL16-k0 |  |  | 
6 | GpH7-B3 Y300K/GpL16-k0 (antibody, human IgG1, B3 variant; copies: 2 + 2) heavy: not shown light: DIVMTQSPLSLPVTPGEPASISCQASESLVHSNRNTYLHWYLQKPGQSPQLLIYKVSNRFSGVPDRFSGSGSGTDFTLKISRVEAEDVGVYYCSQNTHVPPTFGQGTKVEIE | 95 % of GpH7-B3/GpL16-k0 | 59 % of GpH7-B3/GpL16-k0 | 45 % of GpH7-B3/GpL16-k0 | 56 % of GpH7-B3/GpL16-k0 |  |  | 
7 | GpH7-B3 Y296P/GpL16-k0 (antibody, human IgG1, B3 variant; copies: 2 + 2) heavy: not shown light: DIVMTQSPLSLPVTPGEPASISCQASESLVHSNRNTYLHWYLQKPGQSPQLLIYKVSNRFSGVPDRFSGSGSGTDFTLKISRVEAEDVGVYYCSQNTHVPPTFGQGTKVEIE | 45 % of GpH7-B3/GpL16-k0 | 10 % of GpH7-B3/GpL16-k0 | 7 % of GpH7-B3/GpL16-k0 | 8 % of GpH7-B3/GpL16-k0 |  |  | 
8 | IL6R-BP130/IL6R-L (antibody, human IgG1, IgG1; Fc variant of IL6R-B3; copies: 2 + 2) heavy: QVQLQESGPGLVKPSETLSLTCAVSGHSISHDHAWSWVRQPPGEGLEWIGFISYSGITNYNPSLQGRVTISRDNSKNTLYLQMNSLRAEDTAVYYCARSLARTTAMDYWGEGTLVTVSSASTKGPSVFPLAPSSKSTSGGTAALGCLVKDYFPEPVTVSWNSGALTSGVHTFPAVLQSSGLYSLSSVVTVPSSSLGTQTYICNVNHKPSNTKVDKKVEPKSCDKTHTCPPCPAPDLLGGDSVFLFPPKPKDTLMISRTPEVTCVVVDVSHEDPEVKFNWYVDGVEVHNAKTKPREEQYNSTYRVVSVLTVLHQDWLNGKEYKCKMSNKALPKPIEKTISKAKGQPREPQVYTLPPSRDELTKNQVSLTCLVKGFYPSDIAVEWESNGQPENNYKTTPPVLDSDGSFFLYSKLTVDKSRWQQGNVFSCSVMHEALHNHYTQESLSLSP light: DIQMTQSPSSLSASVGDRVTITCRASQDISSYLNWYQQKPGKAPKLLIYYTSRLHSGVPSRFSGSGSGTDFTFTISSLQPEDIATYYCQQGNTLPYTFGQGTKVEIK |  |  |  |  | 104 % of control | 224 % of control | 
9 | IL6R-BP188/IL6R-L (antibody, human IgG1, IgG1; Fc variant of IL6R-B3; copies: 2 + 2) heavy: QVQLQESGPGLVKPSETLSLTCAVSGHSISHDHAWSWVRQPPGEGLEWIGFISYSGITNYNPSLQGRVTISRDNSKNTLYLQMNSLRAEDTAVYYCARSLARTTAMDYWGEGTLVTVSSASTKGPSVFPLAPSSKSTSGGTAALGCLVKDYFPEPVTVSWNSGALTSGVHTFPAVLQSSGLYSLSSVVTVPSSSLGTQTYICNVNHKPSNTKVDKKVEPKSCDKTHTCPPCPAPDLLGDDSVFLFPPKPKDTLMISRTPEVTCVVVDVSDEDGEVKFNWYVDGVEVHNAKTKPREEQYNSTYRVVSVLTVLHQDWLNGKEYKCKVSNKALPKPIEKTISKAKGQPREPQVYTLPPSRDELTKNQVSLTCLVKGFYPSDIAVEWESNGQPENNYKTTPPVLDSDGSFFLYSKLTVDKSRWQQGNVFSCSVMHEALHNHYTQESLSLSP light: DIQMTQSPSSLSASVGDRVTITCRASQDISSYLNWYQQKPGKAPKLLIYYTSRLHSGVPSRFSGSGSGTDFTFTISSLQPEDIATYYCQQGNTLPYTFGQGTKVEIK |  |  |  |  | 74 % of control |  | 179 % of control
10 | IL6R-BP204/IL6R-L (antibody, human IgG1, IgG1; Fc variant of IL6R-B3; copies: 2 + 2) heavy: QVQLQESGPGLVKPSETLSLTCAVSGHSISHDHAWSWVRQPPGEGLEWIGFISYSGITNYNPSLQGRVTISRDNSKNTLYLQMNSLRAEDTAVYYCARSLARTTAMDYWGEGTLVTVSSASTKGPSVFPLAPSSKSTSGGTAALGCLVKDYFPEPVTVSWNSGALTSGVHTFPAVLQSSGLYSLSSVVTVPSSSLGTQTYICNVNHKPSNTKVDKKVEPKSCDKTHTCPPCPAPDLLGGDSVFLFPPKPKDTLMISRTPEVTCVVVDVSHEDGEVKFNWYVDGVEVHNAKTKPREEQYNSTYRVVSVLTVLHQDWLNGKEYKCKVSNAALPRPIEKTISKAKGQPREPQVYTLPPSRDELTKNQVSLTCLVKGFYPSDIAVEWESNGQPENNYKTTPPVLDSDGSFFLYSKLTVDKSRWQQGNVFSCSVMHEALHNHYTQESLSLSP light: DIQMTQSPSSLSASVGDRVTITCRASQDISSYLNWYQQKPGKAPKLLIYYTSRLHSGVPSRFSGSGSGTDFTFTISSLQPEDIATYYCQQGNTLPYTFGQGTKVEIK |  |  |  |  |  | 137 % of control | 165 % of control
11 | IL6R-BP152/IL6R-L (antibody, human IgG1, IgG1; Fc variant of IL6R-B3; copies: 2 + 2) heavy: QVQLQESGPGLVKPSETLSLTCAVSGHSISHDHAWSWVRQPPGEGLEWIGFISYSGITNYNPSLQGRVTISRDNSKNTLYLQMNSLRAEDTAVYYCARSLARTTAMDYWGEGTLVTVSSASTKGPSVFPLAPSSKSTSGGTAALGCLVKDYFPEPVTVSWNSGALTSGVHTFPAVLQSSGLYSLSSVVTVPSSSLGTQTYICNVNHKPSNTKVDKKVEPKSCDKTHTCPPCPAPDYLGDDSVFLFPPKPKDTLMISRTPEVTCVVVDVSHEDPEVKFNWYVDGVEVHNAKTKPREEQDNSTYRVVSVLTVLHQDWLNGKEYKCKVSNAALPRPIEKTISKAKGQPREPQVYTLPPSRDELTKNQVSLTCLVKGFYPSDIAVEWESNGQPENNYKTTPPVLDSDGSFFLYSKLTVDKSRWQQGNVFSCSVMHEALHNHYTQESLSLSP light: DIQMTQSPSSLSASVGDRVTITCRASQDISSYLNWYQQKPGKAPKLLIYYTSRLHSGVPSRFSGSGSGTDFTFTISSLQPEDIATYYCQQGNTLPYTFGQGTKVEIK |  |  |  |  | 34 % of control | 548 % of control | 178 % of control
12 | IL6R-BP146/IL6R-L (antibody, human IgG1, IgG1; Fc variant of IL6R-B3; copies: 2 + 2) heavy: QVQLQESGPGLVKPSETLSLTCAVSGHSISHDHAWSWVRQPPGEGLEWIGFISYSGITNYNPSLQGRVTISRDNSKNTLYLQMNSLRAEDTAVYYCARSLARTTAMDYWGEGTLVTVSSASTKGPSVFPLAPSSKSTSGGTAALGCLVKDYFPEPVTVSWNSGALTSGVHTFPAVLQSSGLYSLSSVVTVPSSSLGTQTYICNVNHKPSNTKVDKKVEPKSCDKTHTCPPCPAPEYLGDDSVFLFPPKPKDTLMISRTPEVTCVVVDVSHEDPEVKFNWYVDGVEVHNAKTKPREEQYNSTYRVVSVLTVLHQDWLNGKEYKCKVSNAALPAPIEKTISKAKGQPREPQVYTLPPSRDELTKNQVSLTCLVKGFYPSDIAVEWESNGQPENNYKTTPPVLDSDGSFFLYSKLTVDKSRWQQGNVFSCSVMHEALHNHYTQESLSLSP light: DIQMTQSPSSLSASVGDRVTITCRASQDISSYLNWYQQKPGKAPKLLIYYTSRLHSGVPSRFSGSGSGTDFTFTISSLQPEDIATYYCQQGNTLPYTFGQGTKVEIK |  |  |  |  |  | 203 % of control | 156 % of control
